According to patent publication US20150344570A1 (published 2015):

T1: FcγRIIa R extracellular domain with C-terminal His tag (human, UniProt P12318 34-217)
T1 construct: extracellular domain; also called FcgRIIa R; 2aR; not shown: His tag at the C terminus
T1 sequence (looked up): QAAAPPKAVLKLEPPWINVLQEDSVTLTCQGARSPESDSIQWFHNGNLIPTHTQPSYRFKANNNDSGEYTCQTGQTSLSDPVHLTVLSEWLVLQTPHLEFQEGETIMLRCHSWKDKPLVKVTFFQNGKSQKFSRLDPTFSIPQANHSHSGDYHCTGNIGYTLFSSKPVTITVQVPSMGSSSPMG


Molecular target: T1, FcγRIIa R extracellular domain with …
Experiment: SPR (Biacore), relative FcγRIIa R binding, GpH7-A5/GpH7-B3/GpL16-k0 = 100

He/Con_2aR | Binder
111 % of control | GpH7-A5/GpH7-B3 variant P331_04F/GpL16-k0 (antibody, human IgG1, kappa, heterodimerized: alteration in one H chain only; also called He Ab P331_04F) heavy 1: not shown heavy 2: not shown light: DIVMTQSPLSLPVTPGEPASISCQASESLVHSNRNTYLHWYLQKPGQSPQLLIYKVSNRFSGVPDRFSGSGSGTDFTLKISRVEAEDVGVYYCSQNTHVPPTFGQGTKVEIERTVAAPSVFIFPPSDEQLKSGTASVVCLLNNFYPREAKVQWKVDNALQSGNSQESVTEQDSKDSTYSLSSTLTLSKADYEKHKVYACEVTHQGLSSPVTKSFNRGEC
104 % of control | GpH7-A5/GpH7-B3 variant P271_08L/GpL16-k0 (antibody, human IgG1, kappa, heterodimerized: alteration in one H chain only; also called He Ab P271_08L) heavy 1: not shown heavy 2: not shown light: DIVMTQSPLSLPVTPGEPASISCQASESLVHSNRNTYLHWYLQKPGQSPQLLIYKVSNRFSGVPDRFSGSGSGTDFTLKISRVEAEDVGVYYCSQNTHVPPTFGQGTKVEIERTVAAPSVFIFPPSDEQLKSGTASVVCLLNNFYPREAKVQWKVDNALQSGNSQESVTEQDSKDSTYSLSSTLTLSKADYEKHKVYACEVTHQGLSSPVTKSFNRGEC
106 % of control | GpH7-A5/GpH7-B3 variant K334_08L/GpL16-k0 (antibody, human IgG1, kappa, heterodimerized: alteration in one H chain only; also called He Ab K334_08L) heavy 1: not shown heavy 2: not shown light: DIVMTQSPLSLPVTPGEPASISCQASESLVHSNRNTYLHWYLQKPGQSPQLLIYKVSNRFSGVPDRFSGSGSGTDFTLKISRVEAEDVGVYYCSQNTHVPPTFGQGTKVEIERTVAAPSVFIFPPSDEQLKSGTASVVCLLNNFYPREAKVQWKVDNALQSGNSQESVTEQDSKDSTYSLSSTLTLSKADYEKHKVYACEVTHQGLSSPVTKSFNRGEC
117 % of control | GpH7-A5/GpH7-B3 variant L328_13S/GpL16-k0 (antibody, human IgG1, kappa, heterodimerized: alteration in one H chain only; also called He Ab L328_13S) heavy 1: not shown heavy 2: not shown light: DIVMTQSPLSLPVTPGEPASISCQASESLVHSNRNTYLHWYLQKPGQSPQLLIYKVSNRFSGVPDRFSGSGSGTDFTLKISRVEAEDVGVYYCSQNTHVPPTFGQGTKVEIERTVAAPSVFIFPPSDEQLKSGTASVVCLLNNFYPREAKVQWKVDNALQSGNSQESVTEQDSKDSTYSLSSTLTLSKADYEKHKVYACEVTHQGLSSPVTKSFNRGEC
106 % of control | GpH7-A5/GpH7-B3 variant P331_02A/GpL16-k0 (antibody, human IgG1, kappa, heterodimerized: alteration in one H chain only; also called He Ab P331_02A) heavy 1: not shown heavy 2: not shown light: DIVMTQSPLSLPVTPGEPASISCQASESLVHSNRNTYLHWYLQKPGQSPQLLIYKVSNRFSGVPDRFSGSGSGTDFTLKISRVEAEDVGVYYCSQNTHVPPTFGQGTKVEIERTVAAPSVFIFPPSDEQLKSGTASVVCLLNNFYPREAKVQWKVDNALQSGNSQESVTEQDSKDSTYSLSSTLTLSKADYEKHKVYACEVTHQGLSSPVTKSFNRGEC
103 % of control | GpH7-A5/GpH7-B3 variant K334_05P/GpL16-k0 (antibody, human IgG1, kappa, heterodimerized: alteration in one H chain only; also called He Ab K334_05P) heavy 1: not shown heavy 2: not shown light: DIVMTQSPLSLPVTPGEPASISCQASESLVHSNRNTYLHWYLQKPGQSPQLLIYKVSNRFSGVPDRFSGSGSGTDFTLKISRVEAEDVGVYYCSQNTHVPPTFGQGTKVEIERTVAAPSVFIFPPSDEQLKSGTASVVCLLNNFYPREAKVQWKVDNALQSGNSQESVTEQDSKDSTYSLSSTLTLSKADYEKHKVYACEVTHQGLSSPVTKSFNRGEC
109 % of control | GpH7-A5/GpH7-B3 variant K334_19Q/GpL16-k0 (antibody, human IgG1, kappa, heterodimerized: alteration in one H chain only; also called He Ab K334_19Q) heavy 1: not shown heavy 2: not shown light: DIVMTQSPLSLPVTPGEPASISCQASESLVHSNRNTYLHWYLQKPGQSPQLLIYKVSNRFSGVPDRFSGSGSGTDFTLKISRVEAEDVGVYYCSQNTHVPPTFGQGTKVEIERTVAAPSVFIFPPSDEQLKSGTASVVCLLNNFYPREAKVQWKVDNALQSGNSQESVTEQDSKDSTYSLSSTLTLSKADYEKHKVYACEVTHQGLSSPVTKSFNRGEC
137 % of control | GpH7-A5/GpH7-B3 variant K326_08L/GpL16-k0 (antibody, human IgG1, kappa, heterodimerized: alteration in one H chain only; also called He Ab K326_08L) heavy 1: not shown heavy 2: not shown light: DIVMTQSPLSLPVTPGEPASISCQASESLVHSNRNTYLHWYLQKPGQSPQLLIYKVSNRFSGVPDRFSGSGSGTDFTLKISRVEAEDVGVYYCSQNTHVPPTFGQGTKVEIERTVAAPSVFIFPPSDEQLKSGTASVVCLLNNFYPREAKVQWKVDNALQSGNSQESVTEQDSKDSTYSLSSTLTLSKADYEKHKVYACEVTHQGLSSPVTKSFNRGEC
141 % of control | GpH7-A5/GpH7-B3 variant K326_03V/GpL16-k0 (antibody, human IgG1, kappa, heterodimerized: alteration in one H chain only; also called He Ab K326_03V) heavy 1: not shown heavy 2: not shown light: DIVMTQSPLSLPVTPGEPASISCQASESLVHSNRNTYLHWYLQKPGQSPQLLIYKVSNRFSGVPDRFSGSGSGTDFTLKISRVEAEDVGVYYCSQNTHVPPTFGQGTKVEIERTVAAPSVFIFPPSDEQLKSGTASVVCLLNNFYPREAKVQWKVDNALQSGNSQESVTEQDSKDSTYSLSSTLTLSKADYEKHKVYACEVTHQGLSSPVTKSFNRGEC
131 % of control | GpH7-A5/GpH7-B3 variant L235_20W/GpL16-k0 (antibody, human IgG1, kappa, heterodimerized: alteration in one H chain only; also called He Ab L235_20W) heavy 1: not shown heavy 2: not shown light: DIVMTQSPLSLPVTPGEPASISCQASESLVHSNRNTYLHWYLQKPGQSPQLLIYKVSNRFSGVPDRFSGSGSGTDFTLKISRVEAEDVGVYYCSQNTHVPPTFGQGTKVEIERTVAAPSVFIFPPSDEQLKSGTASVVCLLNNFYPREAKVQWKVDNALQSGNSQESVTEQDSKDSTYSLSSTLTLSKADYEKHKVYACEVTHQGLSSPVTKSFNRGEC
119 % of control | GpH7-A5/GpH7-B3 variant L328_14T/GpL16-k0 (antibody, human IgG1, kappa, heterodimerized: alteration in one H chain only; also called He Ab L328_14T) heavy 1: not shown heavy 2: not shown light: DIVMTQSPLSLPVTPGEPASISCQASESLVHSNRNTYLHWYLQKPGQSPQLLIYKVSNRFSGVPDRFSGSGSGTDFTLKISRVEAEDVGVYYCSQNTHVPPTFGQGTKVEIERTVAAPSVFIFPPSDEQLKSGTASVVCLLNNFYPREAKVQWKVDNALQSGNSQESVTEQDSKDSTYSLSSTLTLSKADYEKHKVYACEVTHQGLSSPVTKSFNRGEC
